This note sets out measurements from publication PMC10830566 (2024).

Experiment [1] concerns the target T1, endothelial protein C receptor (EPCR), extracellular region, with a C-terminal 12xHis tag (human, UniProt Q9UNN8 18-210).
T1 chain: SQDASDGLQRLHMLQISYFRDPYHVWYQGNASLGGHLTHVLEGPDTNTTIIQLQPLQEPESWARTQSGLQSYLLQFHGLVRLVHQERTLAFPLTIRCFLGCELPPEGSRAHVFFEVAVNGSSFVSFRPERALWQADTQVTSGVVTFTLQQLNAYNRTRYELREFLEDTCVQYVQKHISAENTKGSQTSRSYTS
In words: BLI. Background: Biolayer interferometry detects binding as a change in optical thickness at a sensor tip.

Experiment [2] has as its target T1, endothelial protein C receptor (EPCR), …. In words: BLI.

B1: activated protein C (APC) (enzyme)
chain 1: ANSFLEELRHSSLERECIEEICDFEEAKEIFQNVDDTLAFWSKHVDGDQCLVLPLEHPCASLCCGHGTCIDGIGSFSCDCRSGWEGRFCQREVSFLNCSLDNGGCTHYCLEEVGWRRCSCAPGYKLGDDLLQCHPAVKFPCGRPWKRMEKKRSHL
chain 2: LIDGKMTRRGDSPWQVVLLDSKKKLACGAVLIHPSWVLTAAHCMDESKKLLVRLGEYDLRRWEKWELDLDIKEVFVHPNYSKSTTDNDIALLHLAQPATLSQTIVPICLPDSGLAERELNQAGQETLVTGWGYHSSREKEAKRNRTFVLNFIKIPVVPHNECSEVMSNMVSENMLCAGILGDRQDACEGDSGGPMVASFHGTWFLVGLVSWGEGCGLLHNYGVYTKVSRYLDWIHGHIRDKEAPQKSWAP
modifications: gamma-carboxyglutamate in the Gla domain of the light chain (incl. Gla7 = precursor 49); light and heavy chains disulfide-linked; activation peptide 200-211 and Lys-Arg 198-199 removed …; chain limits taken from the UniProt features
For orientation: koff means a measure of how fast the partners let go of each other. Broadly, the Kd is the constant that tells how readily two partners part at equilibrium. High values mean a looser complex, low ones a tighter complex. Take B1: in experiment [1], the koff amounted to 0.0021 s⁻¹. In experiment [2], this molecule had a Kd of 67 nM.
